According to the supplement of paper PMC10724198:
± gives the standard deviation of the averaged measurements.

Legend:
Saccharomyces cerevisiae [1] = experiment: protein stability index of tFT-peptide fusion (C-terminal peptide) (PSI (0-1 scale)); higher = more stable (slower turnover)
Experimental: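 MPS profiling in S. cerevisiae of the tFT-X12 degron library: putative degron peptides plus stable controls, 12 aa, fused to the C-terminus of a sfGFP-mCherry timer. Cells are FACS-sorted into 8 mCherry/sfGFP bins and deep-sequenced. PSI runs from 0 (unstable) to 1 (stable). Backgrounds are wild type, das1Δ and doa10Δ at 30 °C, and wild type, das1Δ, cdc34-1 and cdc53-1 at 37 °C; 2-3 technical replicates each.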

Saccharomyces cerevisiae [2] = experiment: as above; settings: genetic background: wild type; temperature: 30 C
[3] = genetic background: cdc34-1, temperature: 37 C
[4] = genetic background: cdc53-1, temperature: 37 C
[5] = genetic background: das1 deletion, temperature: 30 C
[6] = genetic background: das1 deletion, temperature: 37 C
[7] = genetic background: doa10 deletion, temperature: 30 C
[8] = genetic background: wild type, temperature: 30 C
[9] = genetic background: wild type, temperature: 37 C
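Further: PSI is a weighted mean of sequencing reads over stability bins, variants kept only with over 10 reads, mCherry proximal and sfGFP distal, peptide attached via GGGS linker.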

Sequence | protein stability index (Saccharomyces cerevisiae [1]; [3]) | protein stability index (Saccharomyces cerevisiae [1]; [4]) | protein stability index (Saccharomyces cerevisiae [1]; [5]) | protein stability index (Saccharomyces cerevisiae [1]; [6]) | protein stability index (Saccharomyces cerevisiae [1]; [7]) | protein stability index (Saccharomyces cerevisiae [1]; [8]) | protein stability index (Saccharomyces cerevisiae [1]; [9]) | protein stability index (Saccharomyces cerevisiae [2])
PPLPPVCPSPSL | 0.665 ± 0.031 | 0.74 ± 0.027 | 0.658 ± 0.0035 | 0.7274 ± 0.0068 | 0.667 ± 0.023 | 0.685 ± 0.028 | 0.714 ± 0.004 | 0.485 ± 0.0061
PPPNSSTSPPCS | 0.6572 ± 0.003 | 0.725 ± 0.017 | 0.661 ± 0.036 | 0.683 ± 0.011 | 0.681 ± 0.029 | 0.687 ± 0.0096 | 0.677 ± 0.013 | 0.196 ± 0.015
PPRRCFPLLLFF | 0.44 ± 0.094 | 0.4471 ± 0.0019 | 0.445 ± 0.022 | 0.546 ± 0.01 | 0.208 ± 0.0085 | 0.209 ± 0.014 | 0.331 ± 0.012 | 0.235 ± 0.036
PPSPVPPIWYLA | 0.636 ± 0.037 | 0.7595 ± 0.0041 | 0.707 ± 0.017 | 0.753 ± 0.029 | 0.233 ± 0.0083 | 0.261 ± 0.045 | 0.417 ± 0.019 | 0.372 ± 0.0055
PRQGGDFVARVG | 0.691 ± 0.0076 | 0.726 ± 0.024 | 0.638 ± 0.016 | 0.7341 ± 0.0065 | 0.631 ± 0.027 | 0.641 ± 0.015 | 0.721 ± 0.022 | 0.7001 ± 0.0014
PRSFFYIQFVFA | 0.301 ± 0.016 | 0.369 ± 0.025 | 0.233 ± 0.016 | 0.431 ± 0.011 | 0.194 ± 0.011 | 0.224 ± 0.022 | 0.375 ± 0.014 | 0.324 ± 0.0069
PSDVLERVIRLL | 0.616 ± 0.027 | 0.714 ± 0.023 | 0.647 ± 0.019 | 0.7309 ± 0.00081 | 0.136 ± 0.0023 | 0.168 ± 0.01 | 0.277 ± 0.051 | 0.265 ± 0.026
PSLPPLPPFAAL | 0.73 ± 0.0098 | 0.7412 ± 0.0013 | 0.676 ± 0.051 | 0.75 ± 0.021 | 0.663 ± 0.0099 | 0.661 ± 0.02 | 0.72 ± 0.024 | 0.749 ± 0.052
PSPVPPPSSPSP | 0.682 ± 0.029 | 0.728 ± 0.027 | 0.67 ± 0.026 | 0.717 ± 0.022 | 0.674 ± 0.021 | 0.684 ± 0.029 | 0.7075 ± 0.0063 | 0.71 ± 0.012
PSPVRSSYASTL | 0.6664 ± 0.0066 | 0.704 ± 0.024 | 0.6396 ± 0.0033 | 0.7222 ± 0.0029 | 0.6532 ± 0.0047 | 0.665 ± 0.02 | 0.68992 ± 0.00058 | 0.711 ± 0.049
PSVRCVVACFIN | 0.241 ± 0.021 | 0.584 ± 0.13 | 0.464 ± 0.02 | 0.576 ± 0.0068 | 0.137 ± 0.028 | 0.172 ± 0.039 | 0.165 ± 0.015 | 0.277 ± 0.015
PVGRSVFFVWFL | 0.65 ± 0.071 | 0.7009 ± 0.0022 | 0.587 ± 0.019 | 0.744 ± 0.029 | 0.3522 ± 0.0035 | 0.367 ± 0.016 | 0.554 ± 0.013 | 0.458 ± 0.019
PVKGTMIKAKNT | 0.659 ± 0.088 | 0.73 ± 0.027 | 0.607 ± 0.026 | 0.71 ± 0.0026 | 0.184 ± 0.017 | 0.193 ± 0.024 | 0.341 ± 0.043 | 0.354 ± 0.068
PVLSLPPLSSPP | 0.682 ± 0.032 | 0.7318 ± 0.0057 | 0.682 ± 0.0089 | 0.7244 ± 0.0058 | 0.691 ± 0.034 | 0.691 ± 0.02 | 0.7044 ± 0.0064 | 0.7068 ± 0.0043
PVLYSFSLWIHL | 0.34 ± 0.049 | 0.441 ± 0.024 | 0.299 ± 0.028 | 0.457 ± 0.011 | 0.2273 ± 0.00038 | 0.255 ± 0.02 | 0.389 ± 0.02 | 0.361 ± 0.0082
PVWLFLVRAIKG | 0.431 ± 0.048 | 0.455 ± 0.024 | 0.321 ± 0.028 | 0.5125 ± 0.002 | 0.262 ± 0.0072 | 0.33 ± 0.029 | 0.512 ± 0.056 | 0.431 ± 0.0097
PWLLHTPLSLVF | 0.321 ± 0.032 | 0.356 ± 0.018 | 0.335 ± 0.017 | 0.403 ± 0.0063 | 0.3182 ± 0.00076 | 0.349 ± 0.0058 | 0.4 ± 0.0051 | 0.434 ± 0.0077
QCLSYFFPVPVA | 0.073 ± 0.042 | 0.0838 ± 0.012 | 0.186 ± 0.03 | 0.227 ± 0.0065 | 0.147 ± 0.014 | 0.182 ± 0.02 | 0.192 ± 0.018 | 0.258 ± 0.035
QGRRKEKAVTLN | 0.652 ± 0.12 | 0.685 ± 0.016 | 0.648 ± 0.041 | 0.729 ± 0.019 | 0.175 ± 0.035 | 0.193 ± 0.032 | 0.241 ± 0.022 | 0.3 ± 0.015
QKGLFYCVILYC | 0.169 ± 0.019 | 0.253 ± 0.034 | 0.214 ± 0.027 | 0.3829 ± 0.0019 | 0.148 ± 0.017 | 0.156 ± 0.032 | 0.272 ± 0.0046 | 0.316 ± 0.017
RDGAHFLLILVC | 0.0425 ± 0.0098 | 0.0913 ± 0.022 | 0.176 ± 0.033 | 0.2536 ± 0.0015 | 0.088 ± 0.025 | 0.125 ± 0.025 | 0.154 ± 0.019 | 0.203 ± 0.059
RFFFSSFPLLIS | 0.327 ± 0.049 | 0.2628 ± 0.0026 | 0.349 ± 0.047 | 0.471 ± 0.014 | 0.207 ± 0.0091 | 0.199 ± 0.025 | 0.307 ± 0.016 | 0.282 ± 0.013
RFLVVVRFYWRC | 0.288 ± 0.087 | 0.424 ± 0.013 | 0.245 ± 0.028 | 0.441 ± 0.0079 | 0.168 ± 0.015 | 0.214 ± 0.035 | 0.36 ± 0.0067 | 0.439 ± 0.044
RGFIYCSFVVRL | 0.4134 ± 0.00058 | 0.466 ± 0.029 | 0.328 ± 0.025 | 0.532 ± 0.012 | 0.301 ± 0.016 | 0.33 ± 0.021 | 0.465 ± 0.022 | 0.412 ± 0.0052
RGLLLKILIASG | 0.376 ± 0.029 | 0.463 ± 0.034 | 0.305 ± 0.019 | 0.48 ± 0.0095 | 0.188 ± 0.012 | 0.213 ± 0.026 | 0.382 ± 0.0086 | 0.237 ± 0.081
RGVGSGGLEGIG | 0.509 ± 0.06 | 0.5457 ± 0.0032 | 0.5178 ± 0.001 | 0.543 ± 0.025 | 0.51 ± 0.004 | 0.514 ± 0.021 | 0.5404 ± 0.0019 | 0.541 ± 0.061
RGVPPPPWTPPP | 0.706 ± 0.041 | 0.7482 ± 0.0045 | 0.6792 ± 0.0067 | 0.731 ± 0.02 | 0.653 ± 0.012 | 0.661 ± 0.0081 | 0.716 ± 0.014 | 0.539 ± 0.062
RIWRLLIIIIKK | 0.387 ± 0.015 | 0.428 ± 0.11 | 0.236 ± 0.085 | 0.565 ± 0.056 | 0.232 ± 0.023 | 0.259 ± 0.016 | 0.456 ± 0.012 | 0.325 ± 0.12
RKRKKISEIIAI | 0.664 ± 0.054 | 0.708 ± 0.075 | 0.589 ± 0.036 | 0.69 ± 0.039 | 0.519 ± 0.037 | 0.572 ± 0.041 | 0.637 ± 0.003 | 0.52 ± 0.047
RLPFPVVLFLLF | 0.392 ± 0.033 | 0.465 ± 0.028 | 0.387 ± 0.041 | 0.515 ± 0.026 | 0.3 ± 0.008 | 0.28 ± 0.024 | 0.404 ± 0.011 | 0.352 ± 0.013
